The text below walks through data of patent US20230235054A1 (BIOATLA, published 2023).

In one test the target is T1, huNectin4-His (human, UniProt Q96NY8 32-349).
T1 construct: Immobilized on the SPR chip; also called humanNectin4; human Nectin4; not shown: His tag
T1 sequence (looked up): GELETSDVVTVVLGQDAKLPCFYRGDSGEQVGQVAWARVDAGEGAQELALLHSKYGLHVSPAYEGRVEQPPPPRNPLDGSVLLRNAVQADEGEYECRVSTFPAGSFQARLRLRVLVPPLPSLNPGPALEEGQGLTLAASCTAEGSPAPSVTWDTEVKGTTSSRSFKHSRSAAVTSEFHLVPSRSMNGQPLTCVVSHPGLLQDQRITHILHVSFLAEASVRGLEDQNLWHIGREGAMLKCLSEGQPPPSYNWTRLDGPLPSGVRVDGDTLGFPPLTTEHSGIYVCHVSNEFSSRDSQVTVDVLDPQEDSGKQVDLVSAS
Kind of test: SPR, huNectin4-His immobilized, pH 7.4. How it is done: Binding kinetics of anti-Nectin4 antibodies were measured by surface plasmon resonance using a SPR2/4 instrument (Sierra Sensors, Hamburg, Germany) and flat amine sensor chips. The SPR sensor contained four flow cells (FC1-FC4), each of which was addressed individually or in groups. huNectin4-His was immobilized in FC2, and cynoNectin4-mFc in FC4. No protein was immobilized in FC1 and FC3 which were used as control surfaces for FC2 and FC4, respectively.
(§1) All injections were done at a flow rate of 25 μL/min at 25° C. The sensor surface was activated with 1-ethyl-3-(3-dimethylaminopropyl)-carbodiimide (EDC) and N-hydroxysuccinimide (NHS) (200 mM/50 mM) for 480 seconds. HuNectin4-His (2 μg/mL in 10 mM NaAc, pH4.5) was injected for 480s and the surface was inactivated by injecting 1M ethanolamine-HCl for 480s. CynoNectin4 was immobilized using the same conditions as described for huNectin4-His, except that the cynoNectin4 was diluted into 10 mM NaAc buffer having pH 5.0. The control surface was activated and deactivated using the same conditions, but without injecting protein. PBST buffer (PBS pH 7.4 with 0.05% TWEEN20™) was used as running buffer for the surface preparation. The running solution was switched to PBST with 30 mM sodium bicarbonate with the pH adjusted as indicated in the figures before the analyte injections. The instrument was equilibrated with the running solution for one hour before the first analyte injection.
(§2) The off-rate was measured for 360s. The chip surface was regenerated after each cycle of interaction analysis by injecting 6 μL of 10 mM glycine (pH 2.0). Flow cells 1 and 3 without immobilized protein were used as control surfaces for reference subtraction.
In general terms: Surface plasmon resonance follows binding to a sensor surface in real time, without labels.

Test [1] concerns the target T2, RatNectin4-His (rat, UniProt D3ZET1 31-348).
T2 construct: Immobilized on the SPR chip; not shown: His tag
T2 sequence: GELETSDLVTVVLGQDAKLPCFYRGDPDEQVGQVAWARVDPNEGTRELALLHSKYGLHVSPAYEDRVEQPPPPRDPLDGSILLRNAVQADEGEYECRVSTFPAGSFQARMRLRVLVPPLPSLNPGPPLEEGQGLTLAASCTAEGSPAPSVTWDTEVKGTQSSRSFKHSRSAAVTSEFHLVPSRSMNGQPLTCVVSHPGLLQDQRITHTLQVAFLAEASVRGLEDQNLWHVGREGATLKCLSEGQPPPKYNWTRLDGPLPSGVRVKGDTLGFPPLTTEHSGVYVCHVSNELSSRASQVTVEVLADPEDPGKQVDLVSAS
Kind of test: SPR, RatNectin4-His immobilized, pH 7.4. How it is done: as §1, §2
(§3) In addition, data with buffer only as analyte (0 nM analyte) was subtracted from each run. Double subtracted data was fitted with the provided analysis software Analyzer R2 (Sierra Sensors) using a 1:1 binding model. A molecular weight of 150 kDa was used to calculate the molar concentrations of the analytes. RatNectin4-His was immobilized in FC3 using the same conditions as described for cynoNectin4.

For test [2], the target named is T2, RatNectin4-His. Kind of test: SPR, RatNectin4-His immobilized, pH 6.0. As to the method: as §1, §2, §3
Test [3] concerns the target T3, recombinant human Nectin4 antigen (human, UniProt Q96NY8 32-349).
T3 construct: construct not described
T3 sequence (looked up): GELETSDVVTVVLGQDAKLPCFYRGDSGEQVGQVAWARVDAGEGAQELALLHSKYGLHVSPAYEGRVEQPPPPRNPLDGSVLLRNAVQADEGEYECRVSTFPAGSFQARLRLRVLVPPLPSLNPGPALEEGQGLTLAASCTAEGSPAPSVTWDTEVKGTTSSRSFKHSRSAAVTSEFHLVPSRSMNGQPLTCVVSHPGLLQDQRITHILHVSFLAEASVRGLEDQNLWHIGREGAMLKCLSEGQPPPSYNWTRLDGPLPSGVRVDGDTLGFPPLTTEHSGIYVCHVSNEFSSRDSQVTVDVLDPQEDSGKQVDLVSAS
Kind of test: pH range ELISA, 30 ng/mL, pH of 50% binding activity. As to the method: 1) Coat ELISA plates with 100 μL of 1 μg/mL recombinant human Nectin4 antigen in carbonate-bicarbonate coating buffer [0462] 2) Cover plates with sealing film and incubate overnight at 4° C. […] 3) Decant plates and tap out residual liquid on a stack of paper towels [0464] 4) Wash wells twice by dispensing 200 μL of various pH incubation buffer to the wells and completely aspirate the contents [0465] 5) Add 200 μL of various pH incubation buffers (pH5.5, 6.0, 6.2, 6.5, 6.7, 7.0 and 7.4) to the wells. Cover with sealing film and place the plate onto a plate shaker (set to 200 rpm) for 60 minutes at room temperature [0466] 6) Decant plates and tap out residual liquid on a stack of paper towels [0467] 7) Serially dilute test substances in various pH incubation buffers (pH5.5, 6.0, 6.2, 6.5, 6.7, 7.0 and 7.4) to 30 ng/mL [0468] 8) Add 100 μL/well of diluted test substances to the plates [0469] 9) Cover with sealing film and place the plates onto a plate shaker (set to 200 rpm) for 60 minutes at room temperature. [0470] 10) Decant plates and tap out residual liquid on a stack of paper towels. […] 12) Dilute the HRP secondary antibody at 1:2500 in various pH incubation buffers (pH5.5, 6.0, 6.2, 6.5, 6.7, 7.0 and 7.4) [0473] 13) Add 100 μL HRP secondary antibody diluted in various pH incubation buffers (pH5.5, 6.0, 6.2, 6.5, 6.7, 7.0 and 7.4) to each well. […] 14) Cover with sealing film and place the plates onto a plate shaker (set to 200 rpm) for 60 minutes at room temperature. [0475] 15) Decant plates and tap out residual liquid on a stack of paper towels. […] 16) Wash wells three times by dispensing 200 μL of various pH wash buffer (pH5.5, 6.0, 6.2, 6.5, 6.7, 7.0 and 7.4) to the wells and completely aspirating the contents [0477] 17) Dispense 50 μL per well of the TMB substrate solution into all wells of plates.

B1: BAP-143-wildtype (antibody, V domains shown)
VH: EVQLVESGGGLVQPGGSLRLSCAASGFTFSSYNMNWVRQAPGKGLEWVSYISSSSSTIYYADSVKGRFTISRDNAKNSLSLQMNSLRDEDTAVYYCARAYYYGMDVWGQGTTVTVSS
VL: DIQMTQSPSSVSASVGDRVTITCRASQGISGWLAWYQQKPGKAPKFLIYAASTLQSGVPSRFSGSGSGTDFTLTISSLQPEDFATYYCQQANSFPPTFGGGTKVEIK
notes: 150 kDa used in SPR; also called BAP143-00-00; benchmark (BM)
With B1, the Kd in the test with huNectin4-His was 0.127 nM; in the test with RatNectin4-His [1], 0.135 nM; with RatNectin4-His [2] it was 0.175 nM.

B2: BAP-143-06-24-16 (antibody, V domains shown)
VH: EVQLVQSGAEVKKPGATVKISCKVSGFTFSSYNMNWIRQSPSRGLEWLGYISSSSSTIYYADSVKGRFTISRDNSKNTLYLQMNSLRAEDTAVYYCARAYYYGDDVWGQGTLVTVSS
VL: DIQMTQSPSSVSASVGDRVTITCHASQGISGWLAWYQQKPGKAPKFLIYAASTLQSGVPSRFSGSGSGTDFTLTISSLQPEDFATYYCQQANSFPPTFGGGTKVEIK
notes: Used as a conjugate with a linker payload (CAB ADC)
Take B2: in the test with huNectin4-His, binding was characterised by a dissociation constant (Kd) of 0.0067 nM, the koff turned out to be 5.21e-06 s⁻¹ and the kon stood at 778000 M⁻¹ s⁻¹. In the test with RatNectin4-His [1], the Kd stood at 0.171 nM, the koff came to 0.000178 s⁻¹ and the kon came out at 1.04e+06 M⁻¹ s⁻¹. Moreover, in the test with RatNectin4-His [2], binding was characterised by a dissociation constant (Kd) of 0.104 nM, the koff is 0.000635 s⁻¹ and the kon is 6.1e+06 M⁻¹ s⁻¹.

B3: BAP-143-06-33-03 (antibody, V domains shown)
VH: QVQLVQSGAEVKKPGASVKVSCKASGFTFSSYNMNWVRQARGQRLEWIGYISSSSSTIYYADSVKGRFTISRDNSKNTLYLQMNSLRAEDTAVYYCARAYYYGMDKWGQGTLVTVSS
VL: DIQMTQSPSSVSASVGDRVTITCRASQGISGWLAWYQQKPGKAPKFLIYAASTLQSGVPSRFSGSGSGTDFTLTISSLQPEDFATYYCQQANSEPPTFGGGTKVEIK
notes: as for B2
As for B3, the pH inflection point in test [3] was 6.85 pH.

B4: BAP-143-07-03-12 (antibody, V domains shown)
VH: EVQLVESGGGLVQPGGSLRLSCAASGFTFSSYNMNWVRQAPGKGLEWVSYISSSSSTIYYADSVKGRFTISRDNAKNSLSLQMNSLRDEDTAVYYCARAYYYGMDKWGQGTTVTVSS
VL: DIQMTQSPSSVSASVGDRVTITCRASQGISGWEAWYQQKPGKAPKFLIYAASTLQSGVPSRFSGSGSGTDFTLTISSLQPEDFATYYCQQANSFPPTFGGGTKVEIK
notes: as for B2
Consider B4, for which the dissociation constant Kd stood at 0.925 nM in the test with huNectin4-His, 1.31 nM with RatNectin4-His [1] and 0.738 nM in the test with RatNectin4-His [2]. The koff in the test with huNectin4-His was 0.000401 s⁻¹; with RatNectin4-His [1], 0.000731 s⁻¹; in the test with RatNectin4-His [2] it was 0.0012 s⁻¹. For the same molecule, the kon with huNectin4-His came out at 434000 M⁻¹ s⁻¹; with RatNectin4-His [1], 557000 M⁻¹ s⁻¹; in the test with RatNectin4-His [2] it was 1.62e+06 M⁻¹ s⁻¹. For the same molecule, the pH inflection point in test [3] worked out at 6.51 pH.

B5: BAP-143-00-01 (antibody, V domains shown)
VH: EVQLVESGGGLVQPGGSLRLSCAASGFTFSSYNMNWVRQAPGKGLEWVSYISSSSSTIYYADSVKGRFTISRDNAKNSLSLQMNSLRDEDTAVYYCARAYYYGMDVWGQGTTVTVSS
VL: DIQMTQSPSSVSASVGDRVTITCRASQGISGWEAWYQQKPGKAPKFLIYAASTLQSGVPSRFSGSGSGTDFTLTISSLQPEDFATYYCQQANSFPPTFGGGTKVEIK
notes: as for B2
B5: in the test with huNectin4-His, binding was characterised by a dissociation constant (Kd) of 1.81 nM, the koff is 0.000517 s⁻¹ and the kon came to 285000 M⁻¹ s⁻¹. In the test with RatNectin4-His [1], this molecule came in with a Kd of 2.42 nM, a koff of 0.000875 s⁻¹ and a kon of 361000 M⁻¹ s⁻¹. In addition, the pH inflection point in test [3] was found to be 6.58 pH. Further, in the test with RatNectin4-His [2], the Kd came to 1.17 nM, the koff is 0.00159 s⁻¹ and the kon worked out at 1.36e+06 M⁻¹ s⁻¹.

B6: BAP-143-06-33-16 (antibody, V domains shown)
VH: EVQLVQSGAEVKKPGATVKISCKVSGFTFSSYNMNWIRQSPSRGLEWLGYISSSSSTIYYADSVKGRFTISRDNSKNTLYLQMNSLRAEDTAVYYCARAYYYGDDVWGQGTLVTVSS
VL: DIQMTQSPSSVSASVGDRVTITCRASQGISGWEAWYQQKPGKAPKFLIYAASTLQSGVPSRFSGSGSGTDFTLTISSLQPEDFATYYCQQANSFPPTFGGGTKVEIK
notes: as for B2
In the test with huNectin4-His, B6 came in with a Kd of 0.17 nM, a koff of 2.01e-05 s⁻¹ and an on-rate (kon) of 119000 M⁻¹ s⁻¹. Further, in the test with RatNectin4-His [1], the Kd amounted to 1.94 nM, the koff turned out to be 0.000261 s⁻¹ and the kon was 135000 M⁻¹ s⁻¹. For the same molecule, in test [3], the pH inflection point worked out at 6.6 pH. In addition, in the test with RatNectin4-His [2], the Kd was 0.154 nM, the koff is 0.000394 s⁻¹ and the kon turned out to be 2.57e+06 M⁻¹ s⁻¹.

For orientation: Kd means the concentration at which binding is half-saturated. Read a high Kd as weaker binding. As usually defined, the koff is a measure of how fast the partners let go of each other. A low value points to a long-lived complex. The kon is a measure of how fast the partners come together. A low value points to slow association.
